Key:
[1] = target: T1, hemagglutinin (HA) of Influenza virus A/PR/8/34 (H1N1) (Influenza virus A/PR/8/34 (H1N1), UniProt P03452 18-565); assay: flow cytometry on IV-infected vs uninfected 1106mel cells
T1 construct: whole, on cells; On IV-infected 1106mel cells; also called IV HA; viral HA

[2] = target: T2, hemagglutinin-neuraminidase (HN) glycoprotein of Sendai virus (Sendai virus); assay: flow cytometry, SV-infected vs uninfected 721.221 cells
T2 construct: whole, on cells; also called SV HN; Sendai HN
T2 sequence (P19758 whole entry): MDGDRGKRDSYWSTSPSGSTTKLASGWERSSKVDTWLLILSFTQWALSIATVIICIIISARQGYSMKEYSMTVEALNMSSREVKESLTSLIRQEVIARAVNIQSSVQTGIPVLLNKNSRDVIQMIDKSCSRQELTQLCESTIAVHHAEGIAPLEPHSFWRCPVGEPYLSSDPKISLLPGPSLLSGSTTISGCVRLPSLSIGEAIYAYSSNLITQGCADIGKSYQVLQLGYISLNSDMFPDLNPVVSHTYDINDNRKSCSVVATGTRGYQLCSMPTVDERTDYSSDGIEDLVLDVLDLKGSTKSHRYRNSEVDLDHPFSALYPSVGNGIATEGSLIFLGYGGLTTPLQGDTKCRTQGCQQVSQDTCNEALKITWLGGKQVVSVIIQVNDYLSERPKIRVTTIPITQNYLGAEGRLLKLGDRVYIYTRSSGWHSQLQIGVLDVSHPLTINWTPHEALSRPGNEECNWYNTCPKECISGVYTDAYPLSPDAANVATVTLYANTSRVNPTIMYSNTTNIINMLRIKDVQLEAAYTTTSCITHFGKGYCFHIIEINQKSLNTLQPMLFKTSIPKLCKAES

[3] = target: T1, hemagglutinin (HA) of Influenza virus …; assay: flow cytometry on IV-infected 1106mel cells (FIG. 11)
[4] = target: T1, hemagglutinin (HA) of Influenza virus …; assay: flow cytometry, IV-infected vs uninfected 1106mel cells
[5] = target: T2, hemagglutinin-neuraminidase (HN) …; assay: flow cytometry, 293T cells transfected with Sendai HN cDNA vs mock

Binder	binding result [1]	fold increase in staining on SV infection [2] [fold]	other results
NKp30-Ig fusion protein (Fc fusion) LWVSQPPEIRTLEGSSAFLPCSFNASQGRLAIGSVTWFRDEVVPGKEVRNGTPEFRGRLAPLASSRFLHDHQAELHIRDVRGHDASIYVCRVEVLGLGVGTGNGTRLVVEKEHPQLGDPEPKSSDKTHTCPPCPAPEFEGAPSVFLFPPKPKDTLMISRTPEVTCVVVDVSHEDPEVKFNWYVDGVEVHNAKTKPREEQYNSTYRVVSVLTVLHQDWLNGKEYKCKVSNKALPAPIEKTISKAKGQPREPQVYTLPPSRDELTKNQVSLTCLVKGFYPSDIAVEWESNGQPENNYKTTPPVLDSDGSFFLYSKLTVDKSRWQQGNVFSCSVMHEALHNHYTQKSLSLSPGK	no binding		
KIR-1-Ig fusion protein (Fc fusion, extracellular domain; not shown: Fc portion of human IgG1) HEGVHRKPSLLAHPGRLVKSEETVILQCWSDVMFEHFLLHREGMFNDTLRLIGEHHDGVSKANFSISRMTQDLAGTYRCYGSVTHSPYQVSAPSDPLDIVIIGLYEKPSLSAQLGPTVLAGENVTLSCSSRSSYDMYHLSREGEAHERRLPAGPKVNGTFQADFPLGPATHGGTYRCFGSFHDSPYEWSKSSDPLLVSVTGNPSNSWPSPTEPSSKTGNPRHLH	no binding		
NKp46D2-Ig fusion protein (Fc fusion, sialic acid residues (binding depends on them), Junction and leader used for secretion not described) YDTPTLSVHPGPEVISGEKVTFYCRLDTATSMFLLLKEGRSSHVQRGYGKVQAEFPLGPVTTAHRGTYRCFGSYNNHAWSFPSEPVKLLVTGDIENTSLAPEDPTFPADTWGTYLLTTETGLQKDHALWDHTAQDPEPKSSDKTHTCPPCPAPEFEGAPSVFLFPPKPKDTLMISRTPEVTCVVVDVSHEDPEVKFNWYVDGVEVHNAKTKPREEQYNSTYRVVSVLTVLHQDWLNGKEYKCKVSNKALPAPIEKTISKAKGQPREPQVYTLPPSRDELTKNQVSLTCLVKGFYPSDIAVEWESNGQPENNYKTTPPVLDSDGSFFLYSKLTVDKSRWQQGNVFSCSVMHEALHNHYTQKSLSLSPGK		~10	
NKp46D1-Ig fusion protein (Fc fusion, Junction between domain and Fc not described) QQQTLPKPFIWAEPHFMVPKEKQVTICCQGNYGAVEYQLHFEGSLFAVDRPKPPERINKVKFYIPDMNSRMAGQYSCIYRVGELWSEPSNLLDLVVTEMDPEPKSSDKTHTCPPCPAPEFEGAPSVFLFPPKPKDTLMISRTPEVTCVVVDVSHEDPEVKFNWYVDGVEVHNAKTKPREEQYNSTYRVVSVLTVLHQDWLNGKEYKCKVSNKALPAPIEKTISKAKGQPREPQVYTLPPSRDELTKNQVSLTCLVKGFYPSDIAVEWESNGQPENNYKTTPPVLDSDGSFFLYSKLTVDKSRWQQGNVFSCSVMHEALHNHYTQKSLSLSPGK			binding result [3]: no binding
NKp44-Ig fusion protein (Fc fusion, sialylated oligosaccharides (binding to HA depends on them), Made in COS-7, purified on protein G) QSKAQVLQSVAGQTLTVRCQYPPTGSLYEKKGWCKEASALVCIRLVTSSKPRTMAWTSRFTIWDDPDAGFFTVTMTDLREEDSGHYWCRIYRPSDNSVSKSVRFYLVVSPASASTQTPWTPRDLVSSQTQTQSCVPPTAGARQAPESPSTIPVPSQPQNSTLRPGPAAPDPEPKSSDKTHTCPPCPAPEFEGAPSVFLFPPKPKDTLMISRTPEVTCVVVDVSHEDPEVKFNWYVDGVEVHNAKTKPREEQYNSTYRVVSVLTVLHQDWLNGKEYKCKVSNKALPAPIEKTISKAKGQPREPQVYTLPPSRDELTKNQVSLTCLVKGFYPSDIAVEWESNGQPENNYKTTPPVLDSDGSFFLYSKLTVDKSRWQQGNVFSCSVMHEALHNHYTQKSLSLSPGK		10	fold increase in staining on IV infection [4]: ~4 fold; fold increase in staining on HN transfection [5]: 2 fold
NKAT-8-Ig fusion protein (Fc fusion, extracellular domain; not shown: Fc portion of human IgG1) QEGVHRKPSFLALPGHLVKSEETVILQCWSDVMFEHFLLHREGKFNNTLHLIGEHHDGVSKANFSIGPMMPVLAGTYRCYGSVPHSPYQLSAPSDPLDMVIIGLYEKPSLSAQPGPTVQAGENVTLSCSSRSSYDMYHLSREGEAHERRLPAVRSINGTFQADFPLGPATHGGTYRCFGSFRDAPYEWSNSSDPLLVSVTGNPSNSWPSPTEPSSKTGNPRHLH	no binding		

Reference: US20040072256A1 (published 2004)
